doi:10.1101/858225, “FANCD2-FANCI is a clamp stabilized on DNA by monoubiquitination during DNA repair” (bioRxiv, 2019)

B1: StrepII-tagged Gallus gallus FANCD2 (expressed alone) (natural protein, UniProt Q68Y81 1-1439, looked up)
chain: MVSKRKLSKIDAAEESSKTDLQSRCPETKRSRISDKRAPSQGGLENEGVFEELLRTSGIILKVGEGQNEIAVDQTAFQKKLRVALEKHPSYPGVVNEFISGLESHIKDRSQFKNCLLPCTPARTEGSRTLVHSYCESLIKLLLGIKILQPAVVTLLLEKIPEFFFDVVGTFGTNFPRLIVNQFKWLDGLLDSQDLVKKLMQMLSVSPVPIQHDIITSLPEILEDSQQNEVARELSCLLKQGRRLTVPILDALSRLDLDAELLAEVRQSAMTIVPSVKLEDLPVVIKFILHNVKAADAVEVISDLRKSLDLSSCVLPLQLLGSQRKLKSQAQASSSMSQVTTSQNCVKLLFDVIKQAVRFQKDVSEAWIKAIENSTSVSDHKVLDLIVLLLIHSTNSKNRKQTEKVLRSKIRLGCMPEQLMQNAFQNHSMVIKDFFPSILSLAQTFLHSAHPAVVSFGSCMYKQAFAVFDSYCQQEVVCALVTHVCSGNETELDISLDVLTDLVILHPSLLLRYATFVKTILDSMQKLNPCQIRKLFYILSTLAFSQRQEGSYIQDDMHMVIRKWLSSSVPNHKQMGIIGAVTMMGSVALKRNEADGGLLERPELSIECDGQLSTLLDLVGFCCEQTPEVLALYYDELANLIEKQKGNLDLQLLDKFGKSLVEDFPNDFVVDLSPTVDGSFLFPVKSLYNLDEDETQGAIAINLLPLVSQSEPGRVADEMSNSRKRVVSPICLSPCFRLLRLYTGEQNNGSLEEIDALLGCPLYLTDLEVEGKLDSLSKQEREFLCSLLFYALNWFREVVNAFCQQQDAEMKGKVLTRLQNITELQNVLGKCLAATPGYVPPPATFDSEAPEGVPSINAGGPVRKKNGKKRKSDSSKACSAERTQADESSDGNQPDTELSELEKSATEKETGNPLAQLQSYRPYFRELDLEVFSVLHCGLLTKSILDTEMHTEASEVVQLGPAELCFLLDDMCWKLEHVLTPGSTRRVPFLKERGNKDVGFSHLCQRSPKEVAVCVVKLLKPLCNHMENMHNYFQTVIPNQGVVDESGLNIQEYQLMSSCYHQLLLAFRLLFAWSGFSQHENSNLLRSALQVLADRLKPGETEFLPLEELISESFQYLLNFQASIPSFQCAFILTQVLMAISEKPMTGWKREKMASLAKQFLCQSWMKPGGDREKGSHFNSALHTLLCVYLEHTDNILKAIEEISSVGVPELINSAKDGCSSTYPTLSRQTFPVFFRVMMAQLESSVKSIPAGKPSDSGEVQLEKLLKWNIAVRNFHILINLVKVFDSRPVLSICLKYGRLFVEAFLKLAMPLLDHSFKKHRDDVQSLLKTLQLSTRQLHHMCGHSKIHQDLGLTNHVPLLKKSLEQFVYRVKAMLAFNHCQEAFWVGVLKNRDLQGEEILSQASAAPEEDSAEGSEEDTADSAAEEPDGTDSDSGGAGR
notes: FANCD2, Gallus gallus, full length cDNA synthesized (GeneArt); C-terminal extension with a 3C protease site before the double StrepII tag; no cleavage is described; also called FANCD2 homodimer; D2-D2; source: Sf9, purified (Strep-Tactin, heparin, Superdex 200); not shown: double StrepII, C-terminal, kept

Legend:
[1] = target: B1; test: pull-down; StrepII-tagged FANCD2 held on StrepTactin Sepharose, FANCI added at FANCD2:FANCI molar ratios 1:0 to 1:5 and 0:5; 50 mM HEPES pH 7.5, 150 mM NaCl, 1 mM TCEP; 15 min room temperature, 30 min 4 °C on resin, two washes; bound fraction by SDS-PAGE; details: both partners purified
[2] = target: the molecule itself; test: SEC; Superdex 200 10/300, 50 mM HEPES pH 7.5, 150 mM NaCl, 1 mM TCEP; 300 µl of each protein at 1 µM; mix of 0.5 µM FANCD2 with 1 µM FANCI incubated 30 min at room temperature; fractions by SDS-PAGE

Row | stoichiometry N [1] | Binder | stoichiometry N [2]
1 | ~1 | His-tagged Gallus gallus FANCI (expressed alone) (natural protein, UniProt B0I564 1-1338, looked up, FANCI, Gallus gallus, full length cDNA synthesized (GeneArt); C-terminal extension with a 3C protease site before the 6x His tag; no cleavage is described; The results call the FANCI of the pull-down 'untagged', the methods 'His-tagged'; also called free FANCI; monomeric FANCI; source: Sf9, purified (HisTrap, heparin, Superdex 200); not shown: 6x His, C-terminal, kept) MAQRILQLAAEGSPERLQEALQGLTEGELGDMVTRQALRGRETAALLKGIFKGSPCSQQSGVLRRLQVYKHCVSLVESGDLHVGKVSEIIGLLMLEARQLPGHALAELATLFVEVIKRGSLSNGKSLELFSTVLTALSNSKESLAYGKGELNGEEFKKQLINTLCSSKWDPQCVIHLANMFRDIPLSGEELQFVVEKVLRMFSKLDLQEIPPLVYQLLLLSAKGSKKTVLEGIISFFNQLDKRQKEEQRVPQSADLEVATVPLDQLRHVEGTVILHIVSAINLDQDIGEELIKHLKTEQQKDPGKALCPFSVSLLLSTAVKHRLQEQIFDFLKTSITRSCKDLQILQASKFLQDLCPQQYDVTAVILEVVKNSAFGWDHVTQGLVDLGFSLMESYEPKKSFGGKAAETNLGLSKMPAQQACKLGASILLETFKVHEPIRSDILEQVLNRVLTKAASPVSHFIDLLSNIVVSAPLVLQNSSSRVTETFDNLSFLPIDTVQGLLRAVQPLLKVSMSVRDSLILVLQKAIFSRQLDARKAAVAGFLLLLRNFKILGSLTSSQCSQAIGATQVQADVHACYNSAANEAFCLEILGSLRRCLSQQADVRLMLYEGFYDVLRRNSQLASSIMETLLSQIKQYYLPQQDLLPPLKLEGCIMAQGDQIFLQEPLAHLLCCIQHCLAWYKSTVHLCKGAEDEEEEEDVGFEQNFEEMLESVTRRMIKSELEDFELDKSADFSPSSGVGVKNNIYAIQVMGICEVLIEYNFKIGNFSKNKFEDVLGLFTCYNKLSEILKEKAGKNKSTLGNRIARSFLSMGFVSTLLTALFRDNAQSHEESLAVLRSSTEFMRYAVSVALQKVQQLEEMGQTDGPDGQNPEKMFQNLCKITRVLLWRYTSIPTAVEESGKKKGKSISLLCLEGLLRIFNTMQQLYAARIPQFLQALDITDGDAEEADINVTEKAAFQIRQFQRSLVNQLSSAEDDFNSKETQLLITILSTLSKLLDPGSQQFLQFLTWTVKICKENALEDLSCCKGLLTLLFSLHVLYKSPVSLLRELAQDIHACLGDIDQDVEIESRSHFAIVNVKTAAPTVCLLVLGQADKVLEEVDWLIKRLTILGSDTSEDSTQASNQTQALEKGVILQLGTLLTVFHELVQTALPAGSCVDSLLRSLSKTYAILTSLIKHYIQACRSTSNTVPGRLEKLVKLSGSHLTPQCYSFITYVQNIHSESLSFAEEKKKKKKEDETAVVSTVMAKVLRDTKPIPNLIFAIEQYEKFLIHLSKKSKVNLMQYMKLSTSRDFRINASMLDSVLQEQNTEDAENEPDNNQSGTAEQPDENQEPQKKRRRKK | 
2 |  | B1 | 2
